Literature values in paper PMC8298264, “Function of cofactor Akirin2 in the regulation of gene expression in model human neutrophil-like HL60 cells” (Bioscience Reports, 2021).

System: AKR2
Parameters: key: A: Very high confidence in the interaction; B: High confidence in the interaction; D: Moderate confidence in the interaction
Settings: AKR2-interacting proteins (IPs), physical interactome; ref https://doi.org/10.3390/vaccines8010077; cited from earlier work
Excerpt: Supplement BSR-2021-1120_supp1.zip/BSR-2021-1120_suppST4.xlsx, sheet "BPs related to AKR2-IPs" | column: Predicted Biological Score (PBS)

B1: UBAC1 (protein, UniProt Q9BSL1 1-405, looked up)
Ubiquitin-associated …: MFVQEEKIFAGKVLRLHICASDGAEWLEEATEDTSVEKLKERCLKHCAHGSLEDPKSITHHKLIHAASERVLSDARTILEENIQDQDVLLLIKKRAPSPLPKMADVSAEEKKKQDQKAPDKEAILRATANLPSYNMDRAAVQTNMRDFQTELRKILVSLIEVAQKLLALNPDAVELFKKANAMLDEDEDERVDEAALRQLTEMGFPENRATKALQLNHMSVPQAMEWLIEHAEDPTIDTPLPGQAPPEAEGATAAASEAAAGASATDEEARDELTEIFKKIRRKREFRADARAVISLMEMGFDEKEVIDALRVNNNQQNAACEWLLGDRKPSPEELDKGIDPDSPLFQAILDNPVVQLGLTNPKTLLAFEDMLENPLNSTQWMNDPETGPVMLQISRIFQTLNRT
For B1, which “Predicted Biological Score (PBS)” value is on record?
The value was “A”.
